Residue numbers refer to the chain shown, from its start. Names may count otherwise.
Tests used:
rat ADPRibase-Mn = biological target: T1, rat ADPRibase-Mn (Rattus norvegicus, UniProt Q5M886); assay: hydrolysis assay; type: biochemical; conditions: behaves as with the zebrafish enzyme; no number given
T1 construct: gene Adprm
T1 sequence (Q5M886 1-337): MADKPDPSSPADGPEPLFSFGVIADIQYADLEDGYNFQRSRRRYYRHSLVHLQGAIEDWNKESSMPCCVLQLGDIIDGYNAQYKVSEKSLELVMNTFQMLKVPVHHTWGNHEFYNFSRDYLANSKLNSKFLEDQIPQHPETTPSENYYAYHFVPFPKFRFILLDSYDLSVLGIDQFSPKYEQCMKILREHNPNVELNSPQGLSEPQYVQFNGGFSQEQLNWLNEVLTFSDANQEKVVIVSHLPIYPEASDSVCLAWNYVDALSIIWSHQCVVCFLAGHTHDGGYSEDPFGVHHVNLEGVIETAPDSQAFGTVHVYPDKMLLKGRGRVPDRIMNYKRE

[1] = substrate: C[N+](C)(C)CCOP(=O)(O)OP(=O)([O-])OC[C@H]1O[C@@H](n2ccc(N)nc2=O)[C@H](O)[C@@H]1O; assay: phosphate release coupled to alkaline phosphatase; Michaelis-Menten fit; type: biochemical, Danio rerio; conditions: 5 mM MnCl2, 50 mM Tris-HCl pH 7.5
Source text: (§1) phosphate release coupled to alkaline phosphatase; Michaelis-Menten fit on zebrafish ADPRibase-Mn

[2] = substrate: NCCOP(=O)(O)OP(=O)(O)OC[C@H]1O[C@@H](n2ccc(N)nc2=O)[C@H](O)[C@@H]1O; assay: as above; type: biochemical, Danio rerio; conditions: 5 mM MnCl2, 50 mM Tris-HCl pH 7.5
Source text: as §1

[3] = substrate: Nc1ccn([C@@H]2O[C@H](COP(=O)(O)OP(=O)(O)OC[C@H](O)CO)[C@@H](O)[C@H]2O)c(=O)n1; assay: as above; type: biochemical, Danio rerio; conditions: 5 mM MnCl2, 50 mM Tris-HCl pH 7.5
Source text: as §1

[4] = substrate: Nc1ncnc2c1ncn2[C@@H]1O[C@H](CO)[C@H]2OP(=O)(O)O[C@H]21; assay: as above; type: biochemical, Danio rerio; conditions: 5 mM MnCl2, 50 mM Tris-HCl pH 7.5, total activity (P-O2′ plus P-O3′ hydrolysis)
Source text: as §1

[5] = substrate: Nc1ncnc2c1ncn2[C@@H]1O[C@H](COP(=O)(O)OP(=O)(O)O)[C@@H](O)[C@H]1O; assay: as above; type: biochemical, Danio rerio; conditions: 5 mM MnCl2, 50 mM Tris-HCl pH 7.5
Source text: as §1

[6] = substrate: N=c1c2ncn3c2ncn1[C@@H]1O[C@H](COP(=O)(O)OP(=O)(O)OC[C@H]2O[C@@H]3[C@H](O)[C@@H]2O)[C@@H](O)[C@H]1O; assay: estimated from inhibition of ADP-ribose hydrolysis by cADPR (equation II); type: biochemical, Danio rerio; conditions: competitive inhibition assumed, Ki taken as Km; 160 µM cADPR against 80 µM ADP-ribose
Source text: estimated from inhibition of ADP-ribose hydrolysis by cADPR (equation II) on zebrafish ADPRibase-Mn

`Nc1ncnc2c1ncn2[C@@H]1O[C@H](CO)[C@H]2OP(=O)(O)O[C@H]21` [2′,3′-cAMP] was tested, and the hydrolysis assay (rat ADPRibase-Mn) was “we did it now and found them to behave as with the zebrafish enzyme”.

B1: zebrafish ADPRibase-Mn (Danio rerio; M1S) (protein)
chain: SEDPVFTFGLIADVQYADIEDGENYLRTRRRYYRGSADLLRDAVLQWRRERVQCVVQLGDIIDGHNRRRDASDRALDTVMAELDACSVDVHHVWGNHEFYNFSRPSLLSSRLNSAQRTGTDTGSDLIGDDIYAYEFSPAPNFRFVLLDAYDLSVIGREEESEKHTHSWRILTQHNHNLQDLNLPPVSVGLEQRFVKFNGGFSEQQLQWLDAVLTLSDHKQERVLIFSHLPVHPCAADPICLAWNHEAVLSVLRSHQSVLCFIAGHDHDGGRCTDSSGAQHITLEGVIETPPHSHAFATAYLYEDRMVMKGRGRVEDLTITYS
notes: full-length ORF (BC054642 region 60-1028), N-terminal Met replaced by Ser; 8-His-MBP-TEV fusion expressed in E. coli BL21, tag cut with TEV protease
B1 was tested, and the Km [1] was 12 ± 3 mM, the kcat [1] was 67.2 s⁻¹ and the kcat/Km [1] was 5600 ± 800 M⁻¹ s⁻¹. For the same molecule, the Km [2] was 3.9 ± 1.3 mM, the kcat [2] was 125 s⁻¹ and the kcat/Km [2] was 32000 ± 300 M⁻¹ s⁻¹. For the same molecule, the Km [3] was 2 ± 1.4 mM, the kcat [3] was 95.6 s⁻¹ and the kcat/Km [3] was 48000 ± 700 M⁻¹ s⁻¹. The Km [4] was 0.76 ± 0.05 mM, the kcat [4] was 16.9 s⁻¹ and the kcat/Km [4] was 22000 ± 3000 M⁻¹ s⁻¹. The Km [5] was 2.65 ± 1.3 mM, the kcat [5] was 1.8 s⁻¹ and the kcat/Km [5] was 660 ± 70 M⁻¹ s⁻¹. The Km [6] was 0.19 ± 0.025 mM, the kcat [6] was 0.005 s⁻¹ and the kcat/Km [6] was 28 ± 3 M⁻¹ s⁻¹.

B2: zebrafish ADPRibase-Mn (Danio rerio; H97A/M1S) (protein)
chain: B1 chain with H97A
notes: as for B1
Molecule B2 has a Km [1] of 43 ± 8 mM, a kcat [1] of 0.8 s⁻¹ and a kcat/Km [1] of 20 ± 5 M⁻¹ s⁻¹. It also gave a Km [2] of 31 ± 0.8 mM, a kcat [2] of 2.1 s⁻¹ and a kcat/Km [2] of 70 ± 20 M⁻¹ s⁻¹. For the same molecule, the Km [3] was 6.3 ± 0.9 mM, the kcat [3] was 0.8 s⁻¹ and the kcat/Km [3] was 120 ± 30 M⁻¹ s⁻¹. For the same molecule, the Km [4] was 1.7 ± 0.24 mM, the kcat [4] was 29.7 s⁻¹ and the kcat/Km [4] was 18000 ± 1000 M⁻¹ s⁻¹. For the same molecule, the Km [5] was 19 ± 0.7 mM, the kcat [5] was 0.2 s⁻¹ and the kcat/Km [5] was 11 ± 5 M⁻¹ s⁻¹.

Source: publication PMC3407115, “Characterization of Danio rerio Mn^2+-Dependent ADP-Ribose/CDP-Alcohol Diphosphatase, the Structural Prototype of the ADPRibase-Mn-Like Protein Family” (PLoS ONE, 2012)
